Test results as given in publication PMC4789280, “Characterisation of the broad substrate specificity 2-keto acid decarboxylase Aro10p of Saccharomyces kudriavzevii and its implication in aroma development” (Microbial Cell Factories, 2016).

B1: SkAro10p (Saccharomyces kudriavzevii IFO 1802) (protein)
chain: MTPVTINTFVNQKEPHLVSNELATISFGEYIFRRLLSTGTKSVFGVPGDFNLSLLEYLYAPSVESAGLKWIGTCNELNAAYAADGYSRYSNNIGCLVTTFGVGELSALNGVAGSFAENVKVLHIVGVAKSIDSRSDNFRDRNMHHLVPQLHGSNFKGPNHKVYHDMVKDRVACSVAYLEDIETACDQVDNVIRDIYKYSKPGYIFVPADFADMSVTCENLINVPHISQQDCITYPSQIQLFDILDRITSWMYSSKTPAILGDVLTDRYGVSEILNKLIYATGIWNFSTVMGKSVIDEANPKYMGQYNGKEGLRQVYEHFESCDLVLHFGVDINEINNGHYTFTYKPNAKIIQFHPNYIRFVDTKYGHEQMFEGINFAPVLMELYKGIDVSRLSLQYDSGVTSYTNETMQLEDPTNDQSNNITQVHLQKVMPKFLSPGDVVVCETGSFQFSVRDFAFPTQLKYISQGFFLSIGMALPAALGVGIAMQDFPNAHISDENIGEGYKPRLILFEGDGAAQMTIQELSTILKCHITIDIFIWNNNGYTIERAIMGPTRAYNDVMSWKWTKLLEAFGDFDRKHTNSTVIEYPSKLAMKLEELKSSNTRDGIELVEVKLGVLDFPEQLKCMVDAAALKRNKK
notes: full-length ARO10 allele on plasmid pG-SkARO10-kX (pGREG526); expressed in S. cerevisiae CEN.PK 711-7C pdc1 pdc5 pdc6 aro10 thi3 null; cell extract
B2: ScAro10p (Saccharomyces cerevisiae S288C) (protein)
chain: MAPVTIEKFVNQEERHLVSNRSATIPFGEYIFKRLLSIDTKSVFGVPGDFNLSLLEYLYSPSVESAGLRWVGTCNELNAAYAADGYSRYSNKIGCLITTYGVGELSALNGIAGSFAENVKVLHIVGVAKSIDSRSSNFSDRNLHHLVPQLHDSNFKGPNHKVYHDMVKDRVACSVAYLEDIETACDQVDNVIRDIYKYSKPGYIFVPADFADMSVTCDNLVNVPRISQQDCIVYPSENQLSDIINKITSWIYSSKTPAILGDVLTDRYGVSNFLNKLICKTGIWNFSTVMGKSVIDESNPTYMGQYNGKEGLKQVYEHFELCDLVLHFGVDINEINNGHYTFTYKPNAKIIQFHPNYIRLVDTRQGNEQMFKGINFAPILKELYKRIDVSKLSLQYDSNVTQYTNETMRLEDPTNGQSSIITQVHLQKTMPKFLNPGDVVVCETGSFQFSVRDFAFPSQLKYISQGFFLSIGMALPAALGVGIAMQDHSNAHINGGNVKEDYKPRLILFEGDGAAQMTIQELSTILKCNIPLEVIIWNNNGYTIERAIMGPTRSYNDVMSWKWTKLFEAFGDFDGKYTNSTLIQCPSKLALKLEELKNSNKRSGIELLEVKLGELDFPEQLKCMVEAAALKRNKK

Assays:
[1] = substrate: O=C(O)C(=O)Cc1ccccc1; experiment: decarboxylase activity, cell extract of decarboxylase-null yeast, Michaelis-Menten; format: biochemical, Saccharomyces kudriavzevii; conditions: cell extract from aerobic ethanol-limited chemostat culture, phenylalanine as nitrogen source
[2] = substrate: O=C(O)C(=O)Cc1ccccc1; experiment: cells, lysate or membranes; conditions: cell extract from aerobic ethanol-limited chemostat culture, phenylalanine as nitrogen source

Protein	Km [1] [µM]	Km [2] [µM]
B1	70 ± 5	
B2		150 ± 10
